This note sets out measurements from the supplement of paper PMC10567573.

First the molecules themselves.
B1: KRT15 (parent)
chain: FGGGSTRGGSLLAGGGGFGGGSLS
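Also: lentivirally expressed fusions sorted by FACS into six bins by GFP to DsRed ratio, PSI derived from sequencing read proportions per bin multiplied by bin number.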

In the data set the parent is B1. Kind of data set: protein stability index of a GFP-peptide fusion (GPS, HEK-293T) (PSI 1-6); higher = more stable. To be noted: c terminus: a fixed tail appended.
As to FGGGSTRGGSLLAGGGVFGGGSLS, the protein stability index worked out at 1.23.
FGGGSTRGGSLLAGGGNFGGGSLS: the protein stability index turned out to be 1.41.
Turning to FGGGSTRGGSLLAGGGHFGGGSLS, the protein stability index came out at 1.63.
As to FGGGSTRGGSLLAGGGEFGGGSLS, the protein stability index amounted to 2.74.
In the case of FGGGSTREGSLLAGGGGFGGGSLS, the protein stability index was 1.64.
As to FGGGSTRDGSLLAGGGGFGGGSLS, the protein stability index was found to be 1.57.
As for FGGGSTRIGSLLAGGGGFGGGSLS, the protein stability index was 1.58.
Consider FGGGSTRRGSLLAGGGGFGGGSLS, for which the protein stability index turned out to be 2.5.
Regarding FGYGSTRGGSLLAGGGGFGGGSLS, the protein stability index stood at 2.2.
With FGLGSTRGGSLLAGGGGFGGGSLS, the protein stability index was 2.42.
In the case of FGDGSTRGGSLLAGGGGFGGGSLS, the protein stability index came out at 1.32.
As to FGQGSTRGGSLLAGGGGFGGGSLS, the protein stability index was 2.17.
The figure for FGHGSTRGGSLLAGGGGFGGGSLS is 1.51; for FGRGSTRGGSLLAGGGGFGGGSLS it is 2.26; for YGGGSTRGGSLLAGGGGFGGGSLS it is 2.25.
Take MGGGSTRGGSLLAGGGGFGGGSLS: the protein stability index was 2.08.
On to KGGGSTRGGSLLAGGGGFGGGSLS, for which the protein stability index came to 4.35.
Take SGGGSTRGGSLLAGGGGFGGGSLS: the protein stability index came to 3.46.
IGGGSTRGGSLLAGGGGFGGGSLS: the protein stability index was determined as 2.53.
On to FGGGSTRGGSLLANGGGFGGGSLS, for which the protein stability index was found to be 2.94.
In the case of FGGGSTRGGSLLAPGGGFGGGSLS, the protein stability index is 2.17.
As for FGGGSTRGGSLLAGGMGFGGGSLS, the protein stability index is 2.16.
For FGGGSTRGGSLLAGGTGFGGGSLS, the protein stability index came out at 1.09.
The figure for FGGGSTRGGSLLAGGRGFGGGSLS is 1.56; for FGGGSTRGGSLLAGGYGFGGGSLS it is 1.9; for FGGGSTRGGSLLAGGDGFGGGSLS it is 1.84.
The value for FGGGSTRGGSLLAGCGGFGGGSLS was 1.56.
The value for FGGGSTRGGSLLAGKGGFGGGSLS was 3.17; that for FGGGSTDGGSLLAGGGGFGGGSLS was 1.54.
Take FGGGSTRGGSLLAGGGGFNGGSLS: the protein stability index was found to be 2.
As for FGGGSTRGGSLLAGGGGFSGGSLS, the protein stability index was 2.06.
As to FGGGSTRGGSLLAGGGGFKGGSLS, the protein stability index was determined as 3.1.
With FGGGSTRGGSLLAGGGGFFGGSLS, the protein stability index worked out at 2.8.
Turning to FGGGSTRGGSLLAGGGGFEGGSLS, the protein stability index was found to be 2.35.
Consider FGGGSTRGGSLLAGGGGFGGGRLS, for which the protein stability index was 2.82.
Regarding FGGGSTRGGSLLAGGGGFGGGFLS, the protein stability index is 2.49.
Turning to FGGGSTRGGSLLAGGGGFGGGLLS, the protein stability index was determined as 1.6.
For the variant FGGGSTRGGSLLAGGGGFGGGTLS, the protein stability index worked out at 2.05.
Turning to FGGGSTRGGSLLAGGGGFGGGHLS, the protein stability index amounted to 2.29.
In the case of FGGGSTRGGSLLAGGGGFGGGQLS, the protein stability index is 1.48.
On to FMGGSTRGGSLLAGGGGFGGGSLS, for which the protein stability index was 2.15.
The value for FWGGSTRGGSLLAGGGGFGGGSLS was 2.54; that for FKGGSTRGGSLLAGGGGFGGGSLS was 3.23; that for FRGGSTRGGSLLAGGGGFGGGSLS was 2.79.
For the variant FQGGSTRGGSLLAGGGGFGGGSLS, the protein stability index stood at 2.
In the case of FFGGSTRGGSLLAGGGGFGGGSLS, the protein stability index was determined as 2.47.
FGGGSTRGGSLLIGGGGFGGGSLS: the protein stability index was determined as 1.46.
Turning to FGGGSTRGGSLLHGGGGFGGGSLS, the protein stability index was determined as 2.53.
As for FGGGSTRGGSLLVGGGGFGGGSLS, the protein stability index worked out at 1.94.
In the case of FGGGSTRGGSLLMGGGGFGGGSLS, the protein stability index amounted to 2.13.
The figure for FGGGSTRGGSLCAGGGGFGGGSLS is 1.7.
Take FGGGSTRGGSLRAGGGGFGGGSLS: the protein stability index stood at 3.6.
Consider FGGGSTRGGSLIAGGGGFGGGSLS, for which the protein stability index is 2.75.
As for FGGGSTRGGSLPAGGGGFGGGSLS, the protein stability index was found to be 3.24.
Take FGGGSTRGGSLDAGGGGFGGGSLS: the protein stability index worked out at 3.38.
In the case of FGGGSTRGGSLGAGGGGFGGGSLS, the protein stability index worked out at 3.23.
In the case of FGGGSTRGGSLQAGGGGFGGGSLS, the protein stability index is 2.67.
For the variant FGGGSTRGGSLEAGGGGFGGGSLS, the protein stability index worked out at 2.72.
FGGGSTRGGSLLAGGGGFGGGSIS: the protein stability index is 1.61.
As to FGGGSTRGGSLLAGGGGFGGGSQS, the protein stability index amounted to 1.96.
The value for FGGGSTRGGSLLAGGGGFGGGSMS was 2.73.
For the variant FGGGSTRGGSLLAGGGGFGGGSGS, the protein stability index came out at 2.26.
The value for FGGGSTRGDSLLAGGGGFGGGSLS was 2.73; that for FGGGSTRGNSLLAGGGGFGGGSLS was 2.35.
On to FGGGSTRGGSYLAGGGGFGGGSLS, for which the protein stability index was 1.97.
Turning to FGGGSTRGGSNLAGGGGFGGGSLS, the protein stability index worked out at 2.78.
FGGGSTRGGWLLAGGGGFGGGSLS: the protein stability index amounted to 4.19.
The figure for FGGGSTRGGKLLAGGGGFGGGSLS is 1.28.
As for FGGGSTRGGILLAGGGGFGGGSLS, the protein stability index worked out at 1.79.
Regarding FGGGSTRGGPLLAGGGGFGGGSLS, the protein stability index came out at 2.12.
On to FGGGSTRGGSLLAGGGGFGGGSLM, for which the protein stability index was 3.68.
Consider FGGGSTRGGSLLAGGGGFGGGSLN, for which the protein stability index was determined as 1.71.
The value for FGGGSTRGGSLLAGGGGFGGGSLT was 2.51; that for FGGGSTRGGSLLAGGGGFGGGSLI was 1.84.
On to FGGGSTRGGSLLAGGGGFGTGSLS, for which the protein stability index worked out at 1.74.
The value for FGGGSTRGGSLLAGGGGFGCGSLS was 1.41; that for FGGGSERGGSLLAGGGGFGGGSLS was 1.62; that for FGGGSKRGGSLLAGGGGFGGGSLS was 1.66.
In the case of FGGGSMRGGSLLAGGGGFGGGSLS, the protein stability index is 1.33.
In the case of FGGGSFRGGSLLAGGGGFGGGSLS, the protein stability index is 2.52.
On to FGGGSVRGGSLLAGGGGFGGGSLS, for which the protein stability index came to 1.23.
For the variant FGGISTRGGSLLAGGGGFGGGSLS, the protein stability index was 2.59.
Turning to FGGKSTRGGSLLAGGGGFGGGSLS, the protein stability index amounted to 2.15.
In the case of FGGWSTRGGSLLAGGGGFGGGSLS, the protein stability index amounted to 2.61.
With FGGFSTRGGSLLAGGGGFGGGSLS, the protein stability index was found to be 1.77.
On to FGGESTRGGSLLAGGGGFGGGSLS, for which the protein stability index amounted to 2.55.
In the case of FGGCSTRGGSLLAGGGGFGGGSLS, the protein stability index was 1.37.
On to FGGQSTRGGSLLAGGGGFGGGSLS, for which the protein stability index stood at 2.17.
The value for FGGGSTRGGSLLAGGGGPGGGSLS was 2.21; that for FGGGSTRGGSLLAGGGGHGGGSLS was 3; that for FGGGSTRGGSLLAGGGGFGGLSLS was 1.52.
In the case of FGGGSTRGGSLLAGGGGFGGSSLS, the protein stability index was 1.95.
The value for FGGGSTRGGSLLAGGGGFGGISLS was 1.34; that for FGGGSTRGGSLLAGGGGFGGNSLS was 2.48.
